Molecular target: Endogenous murine CD206 on M2-polarized bone marrow-derived macrophages (mouse) (UniProt Q61830)
Assay: LC-MS/MS proteomics of CD206 complexes pulled down with biotinylated RP-182 from M2 BMDMs

Endogenous murine CD206 on M2-polarized bone marrow-derived macrophages (mouse), sequence (Q61830 20-1456): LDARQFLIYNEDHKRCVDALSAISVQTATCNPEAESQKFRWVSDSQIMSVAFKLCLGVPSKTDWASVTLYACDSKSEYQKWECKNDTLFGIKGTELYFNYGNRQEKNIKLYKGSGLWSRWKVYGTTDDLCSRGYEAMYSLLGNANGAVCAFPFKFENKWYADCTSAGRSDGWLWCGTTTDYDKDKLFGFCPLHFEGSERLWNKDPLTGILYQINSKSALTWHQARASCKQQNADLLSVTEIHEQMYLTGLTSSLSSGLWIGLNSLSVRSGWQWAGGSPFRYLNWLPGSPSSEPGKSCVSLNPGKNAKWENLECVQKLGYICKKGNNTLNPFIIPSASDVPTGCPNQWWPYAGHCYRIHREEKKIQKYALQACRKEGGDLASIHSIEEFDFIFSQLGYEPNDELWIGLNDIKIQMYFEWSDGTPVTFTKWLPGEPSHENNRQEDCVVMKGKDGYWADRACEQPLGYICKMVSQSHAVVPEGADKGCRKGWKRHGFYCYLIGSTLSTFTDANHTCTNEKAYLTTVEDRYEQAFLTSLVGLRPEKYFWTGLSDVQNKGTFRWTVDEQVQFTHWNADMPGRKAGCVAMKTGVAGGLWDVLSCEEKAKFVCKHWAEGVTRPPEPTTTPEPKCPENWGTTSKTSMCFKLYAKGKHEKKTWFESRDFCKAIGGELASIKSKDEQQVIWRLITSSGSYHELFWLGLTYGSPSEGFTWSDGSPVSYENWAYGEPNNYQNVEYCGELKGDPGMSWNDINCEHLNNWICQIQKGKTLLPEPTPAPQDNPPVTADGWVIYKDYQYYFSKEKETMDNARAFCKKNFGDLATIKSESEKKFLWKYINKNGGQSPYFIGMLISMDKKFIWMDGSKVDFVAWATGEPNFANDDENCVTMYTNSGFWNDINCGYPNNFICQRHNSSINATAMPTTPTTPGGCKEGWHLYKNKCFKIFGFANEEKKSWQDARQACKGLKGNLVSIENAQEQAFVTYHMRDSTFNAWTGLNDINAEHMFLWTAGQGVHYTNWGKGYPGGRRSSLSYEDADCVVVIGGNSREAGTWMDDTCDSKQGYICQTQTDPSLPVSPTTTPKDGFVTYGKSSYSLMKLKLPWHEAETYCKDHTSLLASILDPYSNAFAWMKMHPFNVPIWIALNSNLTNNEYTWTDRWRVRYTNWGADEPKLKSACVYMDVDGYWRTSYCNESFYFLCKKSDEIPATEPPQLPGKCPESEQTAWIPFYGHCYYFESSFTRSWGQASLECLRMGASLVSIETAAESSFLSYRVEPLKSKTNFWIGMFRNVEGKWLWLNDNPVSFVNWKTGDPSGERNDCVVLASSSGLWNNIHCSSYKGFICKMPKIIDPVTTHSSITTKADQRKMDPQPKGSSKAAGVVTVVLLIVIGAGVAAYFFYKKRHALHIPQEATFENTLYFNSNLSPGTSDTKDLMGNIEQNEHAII

fold enriched in CD206 complexes against control | Substance
9 fold | IQ motif containing GTPase activating protein 1 (IQGAP1) (from UniProt Q9JKF1 2-1657)
76 fold | IQ motif containing GTPase activating protein 2 (IQGAP2) (from UniProt Q3UQ44 1-1575)

Source: patent US20220062373A1
